The values that follow come from patent US20210317211A1 (published 2021).

Assay [1] deals with T1, human TREM2 over-expressed on Expi 293 cells (human, UniProt Q9NZC2 19-230).
T1 construct: also called Expi-hTREM2; hTREM2
T1 sequence: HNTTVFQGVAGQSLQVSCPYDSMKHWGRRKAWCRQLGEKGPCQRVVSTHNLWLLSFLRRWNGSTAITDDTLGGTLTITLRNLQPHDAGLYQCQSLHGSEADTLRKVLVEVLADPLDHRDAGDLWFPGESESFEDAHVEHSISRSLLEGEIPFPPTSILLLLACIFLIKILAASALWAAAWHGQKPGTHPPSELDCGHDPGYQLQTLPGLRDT
The assay can be described thus: flow cytometry on Expi 293 cells over-expressing human TREM2; Alexa Fluor 647 secondary antibody. The procedure:
(§1) 100,000 to 500,000 Expi 293 parental cells or Expi 293 cells over-expressing human or mouse TREM2 were plated in […] well plates and dead cells were stained with Zombie Near Infrared (Biolegend). Titrations of indicated unconjugated antibodies were incubated with these cells within a range of 0 ug/ml to 10 ug/ml in a 1:3 dilution range across 8-10 points. Dependent on their isotype (higG1 or mIgG2a), these primary unconjugated antibodies were detected with Alexa Fluor 647 conjugated anti-human Fc or anti-mouse Fc secondary antibodies (Jackson Immunoresearch). Alexa Fluor 647 signal was measured by flow cytometry (BD Fortessa X-14, BD Biosciences). EC50 values were calculated by curve fitting signal generated from antibodies binding to over-expressing cells over background fluorescence generated from HEK293 parental cells in Graphpad Prism (Graphpad Software).
A general note: In flow cytometry, cells or beads pass a laser one at a time.

Assay [2] deals with T2, mouse TREM2 over-expressed on Expi 293 cells (mouse, UniProt Q99NH8 19-227).
T2 construct: also called Expi-mTREM2; mTREM2
T2 sequence: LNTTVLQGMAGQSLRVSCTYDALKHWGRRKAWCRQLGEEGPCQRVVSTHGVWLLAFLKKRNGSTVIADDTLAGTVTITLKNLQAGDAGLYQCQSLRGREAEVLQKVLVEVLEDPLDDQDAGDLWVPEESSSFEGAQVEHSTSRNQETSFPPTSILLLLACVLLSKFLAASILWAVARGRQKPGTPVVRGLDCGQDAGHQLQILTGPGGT
The assay can be described thus: flow cytometry on Expi 293 cells over-expressing mouse TREM2; Alexa Fluor 647 secondary antibody. The procedure:
as §1

B1: Rat IgG2B Clone #237920 (R&D Systems Cat #MAB17291) (antibody, V domains shown)
VH: EVQLVESGGGLVQPGRSLKLSCAASGFTFSNYYMAWVRQAPTKGLEWVASLTNSGGSTYYRDSVKGRFTLSRDNAKSTLYLQMDSLRSEDTATYYCTREWAGSGYFDYWGQGVMVTVSS
VL: NIVMTQSPKSMSLSVGDRVTMNCKASQNVGNNLAWYQQKPGQSPKLLLYYTSNRFTGVPDRFTGGGYGTDFTLTINSVQAEDAAFYYCQRIYNSPWTFGGGTKLELKR
notes: also called mAb 237920
On to B1, for which the EC50 (usually the midpoint of the concentration-response curve) was 0.6 nM in assay [1] and 0.9 nM in assay [2].
